Literature values, collected in patent publication US7708978B2, “Targeted hydrophilic polymer, binders with interferon and medical composite comprising above binders” (Beijing Jiankai Technology Co., Ltd., priority 2002, dated 2010).

Details: in vivo

interferon α
circulation half-life: 4 to 8 h
